In publication PMC10466327:

Molecular target: glutathione S-transferase (GST)
Test: cross-linking; GST crosslinked in a crosslinker titration with UCCL or DSSO, two molar ratios of each reagent; crosslinked dimer seen (Figure 2c)

stoichiometry N: 2
Substance: glutathione S-transferase (GST) (enzyme)
